Changes are numbered by the printed parent chain. Names and notes keep the numbering of the source.

Data set [1] has as its target T1, SacB (Bacillus subtilis levansucrase, LS) (Bacillus subtilis, UniProt P05655, D86A/E342A).
T1 construct: sacB gene of strain 168 in pET22b, expressed in E. coli BL21(DE3); residues 32-471 modelled in crystal
T1 sequence (P05655 30-473 D86A/E342A): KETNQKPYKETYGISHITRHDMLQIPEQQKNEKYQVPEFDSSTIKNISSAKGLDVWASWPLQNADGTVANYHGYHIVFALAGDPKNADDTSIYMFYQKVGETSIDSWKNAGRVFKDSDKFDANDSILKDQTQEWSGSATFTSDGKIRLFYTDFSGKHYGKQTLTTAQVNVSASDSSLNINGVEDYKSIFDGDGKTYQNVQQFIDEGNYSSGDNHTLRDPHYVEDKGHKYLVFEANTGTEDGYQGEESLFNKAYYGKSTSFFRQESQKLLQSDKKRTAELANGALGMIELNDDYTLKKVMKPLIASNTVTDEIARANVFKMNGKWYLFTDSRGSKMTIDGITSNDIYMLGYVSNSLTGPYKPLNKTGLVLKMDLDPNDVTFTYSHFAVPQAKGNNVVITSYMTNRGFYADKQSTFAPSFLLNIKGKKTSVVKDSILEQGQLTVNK
Description: X-ray crystal structure, […] Å, cocrystallization. It counts as binding. The note with it: catalytically inactive mutant; pH 6.0, 18 °C; active site (OB1, six fructose units modelled as levanhexaose); second site OB2 about 20 Å away (levanhexaose in chain A, levanbiose in chain B).

Substrate in data set [2]: OC[C@H]1O[C@@](CO)(O[C@H]2O[C@H](CO)[C@@H](O)[C@H](O)[C@H]2O)[C@@H](O)[C@@H]1O
Kind of data set: initial rates, reducing sugar release by dinitrosalicylic acid. It counts as biochemical, Bacillus subtilis. The note with it: 50 mM acetate pH 6.0, 0-300 mM sucrose, 1 mM CaCl2 in enzyme buffer.

Substrate in data set [3]: OC[C@H]1O[C@@](CO)(O[C@H]2O[C@H](CO)[C@@H](O)[C@H](O)[C@H]2O)[C@@H](O)[C@@H]1O
The description is as above. In kind it is biochemical, Bacillus subtilis. The note with it: 50 mM acetate pH 6.0, 0-300 mM sucrose, 1 mM CaCl2 in enzyme buffer. The method, then: initial rates, reducing sugar release by dinitrosalicylic acid on SacB (Bacillus subtilis levansucrase, LS) | were expressed and purified, and their kinetic parameters were determined (Fig. 4B)
This is another data set of the same source.

For `OC[C@H]1O[C@@](CO)(OC[C@H]2O[C@@](CO)(OC[C@H]3O[C@@](CO)(OC[C@H]4O[C@@](CO)(OC[C@H]5O[C@@](CO)(OC[C@H]6O[C@@](CO)(OC[C@H]7O[C@@](CO)(O[C@H]8O[C@H](CO)[C@@H](O)[C@H](O)[C@H]8O)[C@@H](O)[C@@H]7O)[C@@H](O)[C@@H]6O)[C@@H](O)[C@@H]5O)[C@@H](O)[C@@H]4O)[C@@H](O)[C@@H]3O)[C@@H](O)[C@@H]2O)[C@@H](O)[C@@H]1O` [6,6,6,6,6,6-kestooctaose], the “X-ray crystal structure, 2.05 Å, cocrystallization” value in data set [1] is “inactive double mutant of SacB (D86A/E342A) cocrystallized in the presence of a levan-type FOS”.

B1: SacB (Bacillus subtilis levansucrase, LS) (Bacillus subtilis subsp. subtilis str. 168) (protein)
chain: T1 sequence (P05655 30-473 D86A/E342A) with A57D, A313E
notes: sacB gene of strain 168 in pET22b, expressed in E. coli BL21(DE3); residues 32-471 modelled in crystal
In the case of B1, in data set [2], the Km is reported as 9 mM and the kcat is 236.7 s⁻¹.

B2: SacB (Bacillus subtilis levansucrase, LS) (Bacillus subtilis subsp. subtilis str. 168; F182W) (protein)
chain: T1 sequence (P05655 30-473 D86A/E342A) with A57D, F153W, A313E
notes: as for B1
With B2, in data set [3], the Km is given as 10.5 (1.3) mM and the kcat is reported as 129.4 (3.6) s^-1.

B3: SacB (Bacillus subtilis levansucrase, LS) (Bacillus subtilis subsp. subtilis str. 168; K363A) (protein)
chain: T1 sequence (P05655 30-473 D86A/E342A) with A57D, A313E, K334A
notes: as for B1
B3: in data set [3], the Km is listed as 10.5 (2.2) mM and the kcat is reported as 95.4 (2.2) s^-1.

B4: SacB (Bacillus subtilis levansucrase, LS) (Bacillus subtilis subsp. subtilis str. 168; Y237A) (protein)
chain: T1 sequence (P05655 30-473 D86A/E342A) with A57D, Y208A, A313E
notes: as for B1
Regarding B4, in data set [2], the Km is listed as 10.6 (1.7) mM and the kcat is given as 256.3 (9.3) s^-1.

B5: SacB (Bacillus subtilis levansucrase, LS) (Bacillus subtilis subsp. subtilis str. 168; D117A) (protein)
chain: T1 sequence (P05655 30-473 D86A/E342A) with A57D, D88A, A313E
notes: as for B1
Consider B5, for which, in data set [3], the Km is 13.2 (1.7) mM and the kcat is on record as 171.2 (5.7) s^-1.

B6: SacB (Bacillus subtilis levansucrase, LS) (Bacillus subtilis subsp. subtilis str. 168; N242A) (protein)
chain: T1 sequence (P05655 30-473 D86A/E342A) with A57D, N213A, A313E
notes: as for B1
For the molecule B6, the Km in data set [2] was found to be 19.9 mM.

B7: SacB (Bacillus subtilis levansucrase, LS) (Bacillus subtilis subsp. subtilis str. 168; Y187A) (protein)
chain: T1 sequence (P05655 30-473 D86A/E342A) with A57D, Y158A, A313E
notes: as for B1
Consider B7, for which, in data set [3], the Km was 8.4 (0.9) mM and the kcat is 199.2 (4.4) s^-1.

B8: SacB (Bacillus subtilis levansucrase, LS) (Bacillus subtilis subsp. subtilis str. 168; F182Y) (protein)
chain: T1 sequence (P05655 30-473 D86A/E342A) with A57D, F153Y, A313E
notes: as for B1
B8: in data set [3], the Km was 10.3 (0.7) mM and the kcat is 162.2 (2.6) s^-1.

B9: SacB (Bacillus subtilis levansucrase, LS) (Bacillus subtilis subsp. subtilis str. 168; F182A) (protein)
chain: T1 sequence (P05655 30-473 D86A/E342A) with A57D, F153A, A313E
notes: as for B1
Regarding B9, the Km in data set [2] was 14.5 mM.

These data come from paper PMC7948499, “The molecular basis of the nonprocessive elongation mechanism in levansucrases” (The Journal of Biological Chemistry, 2020).
